The test concerns the target CENP-ΔQU complex (CENP-Q^1–294 and CENP-U^30–266) (S. cerevisiae) (UniProt P53298). The test can be described thus: ITC; CENP-A^END peptides (0.87 to 2.18 mM) titrated into CENP-QU (66 to 180 μM) in the cell; 20°C; 20 mM Hepes pH 7.5, 100 mM NaCl, 1 mM TCEP; single-site binding model; triplicate.

On to Ac-AGDQQSINDRALSLLQRTRATKNLFPRREERRRW-NH2 [CENP-A^END-3 peptide], for which the Kd – broadly, a measure of binding affinity in units of concentration – was found to be 720 nM.

The molecule Ac-AGDQQSINDAALSLLQRTRATKNW-NH2 [CENP-A^END-2-R37A peptide] gave a fold reduction of affinity against the unchanged CENP-A^END peptide of 15 fold.

The molecule Ac-DASINDRALSLLQRTRATDAW-NH2 [CENP-A^END-1 peptide] returned a dissociation constant (Kd) of 11500 nM.

Ac-AGDQQSINDRALSLLQRTRATKNW-NH2 [CENP-A^END-2 peptide] returned a Kd of 1000 nM.

Source of the values: publication PMC10381965.
